Assay: label from the status in PepcDB records

Row | Sequence | protein production
1 | MKRKISSIIVVGIMLFQSLTMYPFITEAKENEQKEEINKPSKITKGLTNSLKYTKTILETGDTYDSVFPDSALAKVVAKEATGSENTTQLVTQADLNKIKSLNGYNKGISVLTGIDLLVNVTSISLNNNQVTDISPIDQLPNLVSLSVKNNQISSLILNAQNQLPKLTTIDIENNPDLNTIDIQDQPQLVDVKTSGYTGLRKLTTVIAKNNPELVNLGQYTIRNVYFSQVASLTKVELVNLPKVRKVNLERNSINELKVTDLAIEDLPLEENELTDTVFDNIQNLPNLKTLDLSKNQLEEVVLDKTDVENLPNLMTLDIQQNLAIKLINVQDQPQLVDVKTSDYKELSALTTVIAKNNPELVNLGQYTIRNVYFSQVASLTKVELVNLPKVRKVNLERNSINELKVTDLAIEDLPLEENELTDTVFDNIQNLPNLKTLDLSKNQLEEVVLDKTDVENLPNLMTLDIQQNLAIKLINVQDQPQLVDVKTSDYKELSALTTVIAKNNPELVNLGYPIMQNVYFSQVASLTKVELANLPKVRAVRLERNSINQIELNNLVSVKDVNLNTNKITNDSIEKFRGMPILATLNLNKNQITNINMLDGFPQMTTLNIDLNSISVLPSNLKTKMPKLSRISALNQTVTLGKAIVVDDSDLIINNEISNFEKLTEPSPISNFGTYANEKITWSSERIKNLTEVSFQFSELINVTGIDGTFSGKVTQPFKRSTTPVINADSEIHYPQGTEKTEAEFLKDVQAQTTDDLAIKSDFETMVNLKKVGKYTVTLNVENLDGIKATPKEVIVYIDAVQGANITVKYEDESGNKLAENSILTGNVGEEYSSSAKEILGYTLTEMPSNAQGEFSLEEQTVTYIYSKNPVPAKDITVQYTDEDGMELAPTETLSGNVDENYVTTAKTFTGYELIETPSNAEGKFSENAQTVTYVYRAIKAEPILAKEVTVNYQDELGAKISETEVLTGEIGETYTTVAKTIDGYTLIKSPTNANGIFNENPQTVTYVYQLQNSPIAANITVKHLDENNNELAPSEVLSGNVDEAYTTKPKEIKDYSLVKVPTNASGKFTTEAQTVIYHYKKNSIPTSSYITVKYVDETGKELAISKVLNGNINDSYATTAKEIKGYTLVQKPANATGKFTDQNQTIKYVYRANKAEVNPNPNSDVLGSNSNGDIQPTNDIKPTNDVQPTNEAPQTLPKTGSQPANLIFGLGILLVLLSTQWLHRNKRKKAKSHNC | failed
2 | NSGKRLIQRSIERALDFRKEVQRLREESDGWFFDIWQPEAVDKAECWPVAPGEDWHGFKDADADHMYLDPVKVTILTPGMDEQGNMDEEGIPAALVAKFLDERGVVVEKTGPYNLLFLFSIGIDKTRAMGLLRGLTEFKRAYDLNLRVKNMLPDLYAEDPDFYRNMRIQDLAQGIHRLIRQHQ | failed
3 | MSVAFVPDWLRGKAEVNQETIQRLLEENDQLIRCIVEYQNKGRGNECVQYQHVLHRNLIYLATIADASPTSTSKAME | failed
4 | MSKGRDILTKTIILALREVAPGLEAVLEAHLRATLNSGIELAYDDPQKFKEAVSKLFGEYSARLLEMVIISKLKGRLGEDIEANSLEELVSEIRKIYGE | not failed
5 | MSSPGGGTRFALVAGTTETAGRAGISAAGADPELMSVTPAADAELVTYGTPVRTDVTPVSPSGCPTPALVTRAAREVLGFDVTVVDGGLAEKTGAPTVSVGARPGKDIAEQDPVSTAHGAFAAARQFGQSLPADELYLGETIPGGTTTALGVLRALGEDGMVSSSLPENPTAQKSEVVAEGLQASSLEPGDAANEPKRAVRRMGDPVLATLAGLTAGAVESDTAVTLAGGSQCVAVAALVRHGGYEGPLGLATTSYVADDESADVRASVDRLDLDLTVTDPGFDRSDHVAMERFVAGEAKEGVGMGGALALAD | not failed
6 | MKFSKFGQKFTQPTGISQLMDDLGDALKSDQPVNMLGGGNPAKIDAVNELFLETYKALGNDNDTGKANSSAIISMANYSNPQGDSAFIDALVGFFNRHYDWNLTSENIALTNGSQNAFFYLFNLFGGAFVNEHSQDKESKSVDKSILLPLTPEYIGYSDVHVEGQHFAAVLPHIDEVTHDGEEGFFKYRVDFEALENLPALKEGRIGAICCSRPTNPTGNVLTDEEMAHLAEIAKRYDIPLIIDNAYGMPFPNIIYSDAHLNWDNNTILCFSLSKIGLPGMRTGIIVADAKVIEAVSAMNAVVNLAPTRFGAAIATPLVANDRIKQLSDNEIKPFYQKQATLAVKLLKQALGDYPLMIHKPEGAIFLWLWFKDLPISTLDLYERLKAKGTLIVPSEYFFPGVDVSDYQHAHECIRMSIAADEQTLIDGIKVIGEVVRELYDNK | not failed
7 | MKNILPLMWVIILMFVISQGVSAKGKKEIPKSEYGSYIVIMDLNPAIAYEGDIKGFKATKPGKNKKINPKSANVRKYTSMLSKTHDAALAKANVKSKDKVHDYGIALNGFSAKMTHEQAVALSSQDGVAKVMPDVLRQKMTDNSPSFLDLGGPAGPWLKGYDGEGIVIGVIDTGIWPEHPSFTDDGSYSTPPILLDDSRPNCEFGNTGHRPDDVAFSCNNKLIGARQMLDTYRLIVGATSDEFDSARDEDGHGTHTSSTSGGNANVPANMLGNDYGLISGIAPRAHIVMYKGLGDLGGFGSDLAAAIDQAVADGVDVINYSIGSSSFAIGPDDVAFLFAENAGVFVATSNGNSGPAPATTGSPASTPWVTSVGASTQNRTYQGSASSVGEWEFFGASITAGTAELALIDSAEAGSELCIPGVLDPVAVAGKIVLCLRGAIARVDKSKAVNIAGGAGMILYNANDGESQVTDSHWVPSVHINNTDGLVIKGYISNDASTAVAQIMGGTYTEIDAPSMAGFSSRGPNLLSGDIIKPDVTAPGVNIIAGQTPASEGRGELFQMISGTSMSSPHVAGLFAMIKQAHPNWSPSTAKSALMTTAYQDVMKEDEATPADAFDMGAGHVNPGGKANKGSIFEPGLAYQAGLFEYAAYSCGAELGIFSPGTCGFLESLGIPTDPANLNLPSIGIANVIGSKTVYRSVTGVAKDSGWRTYSVDVDAPAGYEVSVLPASIKLKSGMSATYAVTITNTASPAGEWAHGSITWRDSNDHYSVYSPIAVKGALFEAPANITGSSETGSASIDVTFGYTGDYTASGYGLTAATVDIDSVVQDPDQIFDPGDTFSNAHAIVVSGAAYLRIAIPGVADPNADLDIFLLDSVGNIVGVSANGGTDELIEMELPGDDTYTLWVHGWSAPGGSTDYELYSWVVPMASGSLTVASAPSSATLGATETIGVDWTGATNGKWHFGVIGHSDAGGLIGATLVEVDNR | failed
8 | MRYLADHDDLTGLHNRRALLQHLDQRLAPGQPGPVAALFLDLDRLKAINDYLGHAAGDQFIHVFAQRIGDALVGESLIARLGGDEFVLIPASPMSADAAQPLAERLRDQLKDHVAIGGEVLTRTVSIGVASGTPGQHTPSDLLRRADQAALAAKHAGGDSVAIFTLEHHHHHH | failed
9 | MTKHIPLQATSACAAVPPSAVLDSAHLGEIRGALGTIAADDRAPRRTLKARLQTLLAIAGPGLIVMVGDNDAGAFGTYTQAGQNYGTTLLWTLLLLIPVLYVNQEMVVRLGAVTGVGHARLIFARFGKFWGAFSVADLFLLNALTLVTEFIGISLALQYLGLSQFWGVIAAAVIITFAVSTGDFRRFERFALLLVAGSLLLIPVAVMVHPPLPQLAHDFFVPKMPAGAPLGEVMLLIIAIVGTTIAPWQLFFQQSYLIDKRITPRFIRYERWDLCVGIALVIIGAVAMIGFSAAAFAGRPEFGAYTDALGTAHGLEQAAGRLPAILFALALLDASIIGAAAVSLATAYAIGDVFAVAHSLHRKPSEAKGFYAVYAGLIAFAAALVVTPGMPLGLLTNAVQTLAGVLLPSATVFLLLLCNDKAVLGPWVNRRAGNLFTGAIVAVLVLLSVILTVSVLFPGVGETTILGILGGGVVGALLLSGAVALIARRGQGVRAEPPARSVVAPEEWRMPLLATLPPARLSAVSRTWLLVLRGYLVLAAGLVLYRIVELIAR | failed
10 | MELRDRIDFLCKTILAIKTAGRLVLGIDGLSRSGKTTLANQLSQTLREQGISVCVFHMDDHIVERAKRYHTGNEEWFEYYYLQWDVEWLTHQLFRQLKASHQLTLPFYDHETDTHSKRTVYLSDSDMIMIEGVFLQRKEWRPFFDFVVYLDCPREIRFARENDQVKQNIQKFINRYWKAEDYYLETEEPIKRADVVFDMTS | not failed
11 | SAESSKLSATTVEAAPAMIKAKDVISPSEKEESDQTEITKVSVLKNLDEKEMIKEFADRLQRLEAKVDLLVTKADLLAIKADIQELLISAKGEKVPAMKTSAKASSESDDSYMDTSSEDESSSAEEPVNKPAASAAKPATKDSLFSAGFKPAAKDSLFSAGFKPDSLFSAGFEPAAKDSLFSAGFKPGSLFSAGFEPAAKDSLFSAGFKPDSLFSVGVKPAAKDSLFSVGVNGRSFSVTGFDASLPVDDIKSALSKYFSSFGEITRVFVPPSHGTGGSLGYAYIDLKEGAEKALELGRHDVGGWDLVVGKAEPIRSGSTWPFPGRCGNQGRCTFC | failed
12 | MMSDLPRDLLEERLSRVPVKSLREARFTCKNWKTLSKKRSFTKKHLAQEATSRESEFKVVMVLHCKVYLTSINLRGIHNGFDPSINRQAKLVSLNGTDQIDISEVYHCDGLLLCISKDYTRVVVWNPYRSQTLWLKPSSPDHRMDWYICAIGYEKRKSSLRYKVLRFVDFAEEEFVEYEIYELKSNSWRVLDVTSDWEVEFYARGVSLKGNTYWFATDKFPEISSNLIHSVYFLLCFNFTSERFGPRLHLPCYPMDVDTVSLSSVREEQLAVLFQRKDNLHMEIWVTTKIEPEEVMWSKLFLAVDMQPLTDFKFGIADASFIIDEEKKVVVVFAKDKDVMYPTHNTAYIIGEDGYYKEVDLGKTTDKIRDPLVCSYVPSSAQIKQGGKRKKKGKLITD | failed
13 | MEKAMPESFVVRREAHLAAPPAAVFALMTDPEKILRWMGTEAEVEPEPGGLYLVNVTGARFARGSFREVVPVHRLAYSFGWDGSEVVPPGSSLVEIDLIEQGGGTLLRLTHSGLPSAEQCAGHEEGWAHYLGRLTEVAAGRDPGLEHHHHHH | failed
14 | MMVGLINAIPVANKDEYKNVGVYIEHRGDEIKRSSLEMIGIGKQLARKINEKLLCVVIGDKVDGIAKEVGEYGCDIVLAAESPDLAEYRTMPYAQIIGDYIAEYKPNIFLLAATRNGRDLASRIAVKERTGITADCTVLDVDENRTLLANRPTYGESTLAEILCRNHRPQMATARPGTFTPAEKEKDHKYEIVKKKVNVDKNMLKKQIIKFIPKKATDLTAAKIVVAGGLGLGGPDGFKLLQDLADLIGGAVGSSRPPVDLGWITRDHQVGQTGQAVRPDLYVAVGISGKPQHVAGMKFSKVIISINKDPNAEINKISDYIIVEDYRKAVPALIDAIKNFGKQKVAEAQKA | failed
15 | MDILKLLMVAILIGLTAFFVAVEFAIIKVRSSRIDQLVSEKRRGALAAKKVTSNLDEYLSACQLGITITALGLGWLGEPTIKHLLEPLFLKLNLSPAIASTVSFIIAFAVITFLHVVIGELAPKTFAIQRAEQVSLLLSKPLIYFYRIMYPFIWALNGSARLVTGLFGLHPASEHEVAHSEEELRLILSESYESGEINQREFKYVNNIFEFDNRVAKEIMVPRTEVIGLYEDEPFETHIKIIAQEKYTRYPVFGEDKDEIIGMVNVKDLFIRYIDGNRDEECSITPYTRPVIEVLENIPIHDLLLQMQRKHIPLAVLYDEYGGTAGIVTLEDILEEIVGEIRDEYDEDEHPPIEHISEGCKIVEGKVLISEVNDLFGIHLIADDVDTIGGWIMVQKQIVAEGDIIEKHGFSFKVLEKDMHQIKRVEIKKVEE | failed
16 | ERIPLAVGDTPATLYRLEGDAEAPLAVVTHGFGGSRQMMEAISLTLARAGLAVVSFDFRGQGRSAIPMSPDAFPNEAGSSGTTVQLVRQTLEVVEAARALPGIAGPPALIGHSMATDILVRAADRLPEVGPVALISAYSRQVTPETPARLLILSGQREGGLREVALEMARQVAPDAAEGETVRAGAVERRASVAPYVGHAGVLWSPTTLRELRDWL | failed

Reference: a protein production outcome set (Wang et al. 2014)
